Data from PMC9482650, “Quantitative fragmentomics allow affinity mapping of interactomes” (Nature Communications, 2022).

T1: APBA2_1, Q99767
T1 sequence (Q99767 563-664, limits assumed, looked up): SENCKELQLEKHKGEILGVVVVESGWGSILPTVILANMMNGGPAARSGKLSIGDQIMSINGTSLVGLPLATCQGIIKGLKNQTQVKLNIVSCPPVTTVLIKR

T2: APBA3_1, O96018
T2 sequence (O96018 389-490, limits assumed, looked up): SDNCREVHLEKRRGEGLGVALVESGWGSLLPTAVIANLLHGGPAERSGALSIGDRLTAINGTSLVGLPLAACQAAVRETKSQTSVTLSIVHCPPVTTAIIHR

T3: ARHGEF11, O15085
T3 sequence (O15085 42-136, limits assumed, looked up): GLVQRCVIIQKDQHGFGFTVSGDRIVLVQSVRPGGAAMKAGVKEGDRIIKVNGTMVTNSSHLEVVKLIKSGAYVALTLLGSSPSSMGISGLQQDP

T4: CARD11, Q9BXL7
T4 sequence (Q9BXL7 662-765, limits assumed, looked up): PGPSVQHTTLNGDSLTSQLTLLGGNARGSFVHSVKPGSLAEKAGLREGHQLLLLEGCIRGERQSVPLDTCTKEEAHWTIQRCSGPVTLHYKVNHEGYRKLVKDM

T5: DVL3, Q92997
T5 sequence (Q92997 244-331, limits assumed, looked up): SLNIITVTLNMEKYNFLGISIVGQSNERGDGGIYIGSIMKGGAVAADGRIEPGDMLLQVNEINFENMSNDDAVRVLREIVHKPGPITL

T6: FRMPD1, Q5SYB0
T6 sequence (Q5SYB0 52-145, limits assumed, looked up): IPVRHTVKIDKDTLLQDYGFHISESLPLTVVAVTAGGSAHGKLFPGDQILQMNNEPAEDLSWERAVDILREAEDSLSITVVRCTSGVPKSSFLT

T7: GRIP1_2, Q9Y3R0
T7 sequence (Q9Y3R0 145-248, limits assumed, looked up): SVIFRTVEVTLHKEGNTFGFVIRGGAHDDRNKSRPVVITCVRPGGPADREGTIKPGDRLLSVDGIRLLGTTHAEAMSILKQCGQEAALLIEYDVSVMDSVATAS

T8: MPP6, Q9NZW5
T8 sequence (Q9NZW5 125-219, limits assumed, looked up): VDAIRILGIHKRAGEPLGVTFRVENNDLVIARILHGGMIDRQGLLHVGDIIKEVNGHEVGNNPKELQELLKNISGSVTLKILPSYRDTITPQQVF

T9: NHERF3_1, Q5T2W1
T9 sequence (Q5T2W1 4-100, limits assumed, looked up): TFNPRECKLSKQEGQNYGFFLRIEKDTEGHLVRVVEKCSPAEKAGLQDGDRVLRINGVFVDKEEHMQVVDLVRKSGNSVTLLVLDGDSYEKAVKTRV

T10: PCLO, Q9Y6V0
T10 sequence (Q9Y6V0 4491-4600, limits assumed, looked up): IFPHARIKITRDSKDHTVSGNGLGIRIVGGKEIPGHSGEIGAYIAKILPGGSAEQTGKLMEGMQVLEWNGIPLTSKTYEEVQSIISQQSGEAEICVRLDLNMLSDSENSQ

T11: SNTA1, Q13424
T11 sequence (Q13424 82-180, limits assumed, looked up): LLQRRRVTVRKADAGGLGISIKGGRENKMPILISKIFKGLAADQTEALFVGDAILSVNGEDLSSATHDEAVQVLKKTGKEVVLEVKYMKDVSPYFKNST

T12: TIAM2, Q8IVF5
T12 sequence (Q8IVF5 885-986, limits assumed, looked up): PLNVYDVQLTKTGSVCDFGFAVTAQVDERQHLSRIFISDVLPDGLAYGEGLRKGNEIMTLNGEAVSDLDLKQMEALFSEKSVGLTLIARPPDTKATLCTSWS

T13: TJP3_3, O95049
T13 sequence (O95049 375-456, limits assumed, looked up): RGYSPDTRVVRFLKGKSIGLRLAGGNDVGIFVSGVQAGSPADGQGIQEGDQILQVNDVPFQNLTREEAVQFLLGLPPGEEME


These binders were tested against T1, APBA2_1, Q99767 (assay: holdup assay). Conditions: plain residues with an end cap or a label only (N-terminal biotin on a linker: ado-ado).
Set-up: key: below the threshold = too weak to quantify, mostly under pKd 3.1 to 4

Binder | pKd
NASRTRITFV [MCM7, P33993] | below the threshold
QSPPNIYYKV [EFNB3, Q15768] | below the threshold

These binders were tested against T2, APBA3_1, O96018 (assay: holdup assay). Conditions: plain residues with an end cap or a label only (N-terminal biotin on a linker: ado-ado).
Set-up: key: below the threshold = too weak to quantify, mostly under pKd 3.1 to 4

Binder | pKd
NASRTRITFV [MCM7, P33993] | below the threshold
QSPPNIYYKV [EFNB3, Q15768] | below the threshold

The binders below were run against T3, ARHGEF11, O15085 (assay: holdup assay). Conditions: plain residues with an end cap or a label only (N-terminal biotin on a linker: ado-ado).
Set-up: key: below the threshold = too weak to quantify, mostly under pKd 3.1 to 4

Binder | pKd
NASRTRITFV [MCM7, P33993] | 4.35
QSPPNIYYKV [EFNB3, Q15768] | 4.15

The binders below were run against ARHGEF12, Q9NZN5-2 (assay: holdup assay). Conditions: plain residues with an end cap or a label only (N-terminal biotin on a linker: ado-ado).
Chain of ARHGEF12, Q9NZN5-2 (Q9NZN5 other isoform, or with tags, fused parts or gaps): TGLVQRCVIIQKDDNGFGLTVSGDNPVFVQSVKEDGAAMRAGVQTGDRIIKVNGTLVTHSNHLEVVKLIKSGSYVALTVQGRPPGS
Set-up: key: below the threshold = too weak to quantify, mostly under pKd 3.1 to 4

Binder | pKd
NASRTRITFV [MCM7, P33993] | 4.46
QSPPNIYYKV [EFNB3, Q15768] | below the threshold

Each binder was assayed against T4, CARD11, Q9BXL7 (assay: holdup assay). Conditions: plain residues with an end cap or a label only (N-terminal biotin on a linker: ado-ado).
Set-up: key: below the threshold = too weak to quantify, mostly under pKd 3.1 to 4

Binder | pKd
NASRTRITFV [MCM7, P33993] | below the threshold
QSPPNIYYKV [EFNB3, Q15768] | below the threshold

The binders below were run against CASK, O14936 (assay: holdup assay). Conditions: plain residues with an end cap or a label only (N-terminal biotin on a linker: ado-ado).
Chain of CASK, O14936 (O14936 487-570): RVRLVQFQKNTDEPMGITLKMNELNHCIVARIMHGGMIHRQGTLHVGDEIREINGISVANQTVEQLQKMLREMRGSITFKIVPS
Set-up: key: below the threshold = too weak to quantify, mostly under pKd 3.1 to 4

Binder | pKd
NASRTRITFV [MCM7, P33993] | below the threshold
QSPPNIYYKV [EFNB3, Q15768] | below the threshold

The binders below were run against DLG5_1, Q8TDM6 (assay: holdup assay). Conditions: plain residues with an end cap or a label only (N-terminal biotin on a linker: ado-ado).
Chain of DLG5_1, Q8TDM6 (Q8TDM6 617-713): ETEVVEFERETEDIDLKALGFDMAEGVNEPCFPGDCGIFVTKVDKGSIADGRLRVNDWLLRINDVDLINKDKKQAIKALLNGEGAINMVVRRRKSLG
Set-up: key: below the threshold = too weak to quantify, mostly under pKd 3.1 to 4

Binder | pKd
NASRTRITFV [MCM7, P33993] | below the threshold
QSPPNIYYKV [EFNB3, Q15768] | below the threshold

Each binder was assayed against T5, DVL3, Q92997 (assay: holdup assay). Conditions: plain residues with an end cap or a label only (N-terminal biotin on a linker: ado-ado).
Set-up: key: below the threshold = too weak to quantify, mostly under pKd 3.1 to 4

Binder | pKd
NASRTRITFV [MCM7, P33993] | 3.96
QSPPNIYYKV [EFNB3, Q15768] | below the threshold

The binders below were run against T6, FRMPD1, Q5SYB0 (assay: holdup assay). Conditions: plain residues with an end cap or a label only (N-terminal biotin on a linker: ado-ado).
Set-up: key: below the threshold = too weak to quantify, mostly under pKd 3.1 to 4

Binder | pKd
NASRTRITFV [MCM7, P33993] | below the threshold
QSPPNIYYKV [EFNB3, Q15768] | below the threshold

What follows are binders tested against T7, GRIP1_2, Q9Y3R0 (assay: holdup assay). Conditions: plain residues with an end cap or a label only (N-terminal biotin on a linker: ado-ado).
Set-up: key: below the threshold = too weak to quantify, mostly under pKd 3.1 to 4

Binder | pKd
NASRTRITFV [MCM7, P33993] | below the threshold
QSPPNIYYKV [EFNB3, Q15768] | 3.52

These binders were tested against GRIP2_3, Q9C0E4 (assay: holdup assay). Conditions: plain residues with an end cap or a label only (N-terminal biotin on a linker: ado-ado).
Chain of GRIP2_3, Q9C0E4 (Q9C0E4 238-339): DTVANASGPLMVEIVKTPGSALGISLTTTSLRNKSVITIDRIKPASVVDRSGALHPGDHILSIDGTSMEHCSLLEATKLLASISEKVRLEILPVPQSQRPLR
Set-up: key: below the threshold = too weak to quantify, mostly under pKd 3.1 to 4

Binder | pKd
NASRTRITFV [MCM7, P33993] | below the threshold
QSPPNIYYKV [EFNB3, Q15768] | below the threshold

Each binder was assayed against GRIP2_6, Q9C0E4 (assay: holdup assay). Conditions: plain residues with an end cap or a label only (N-terminal biotin on a linker: ado-ado).
Chain of GRIP2_6, Q9C0E4 (Q9C0E4 648-740): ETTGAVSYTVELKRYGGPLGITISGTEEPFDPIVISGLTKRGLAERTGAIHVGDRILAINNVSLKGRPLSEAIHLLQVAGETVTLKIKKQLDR
Set-up: key: below the threshold = too weak to quantify, mostly under pKd 3.1 to 4

Binder | pKd
NASRTRITFV [MCM7, P33993] | 3.58
QSPPNIYYKV [EFNB3, Q15768] | 4.4

What follows are binders tested against HTRA2, O43464 (assay: holdup assay). Conditions: plain residues with an end cap or a label only (N-terminal biotin on a linker: ado-ado).
Chain of HTRA2, O43464 (O43464 355-458): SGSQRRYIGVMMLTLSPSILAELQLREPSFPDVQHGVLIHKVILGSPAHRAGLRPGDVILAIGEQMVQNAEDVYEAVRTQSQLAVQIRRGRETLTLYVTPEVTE
Set-up: key: below the threshold = too weak to quantify, mostly under pKd 3.1 to 4

Binder | pKd
NASRTRITFV [MCM7, P33993] | 4.52
QSPPNIYYKV [EFNB3, Q15768] | 4.3

The binders below were run against IL16_1, Q14005 (assay: holdup assay). Conditions: plain residues with an end cap or a label only (N-terminal biotin on a linker: ado-ado).
Chain of IL16_1, Q14005 (Q14005 210-306): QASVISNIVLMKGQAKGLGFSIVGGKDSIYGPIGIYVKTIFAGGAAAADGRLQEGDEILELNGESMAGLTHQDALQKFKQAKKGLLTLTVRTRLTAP
Set-up: key: below the threshold = too weak to quantify, mostly under pKd 3.1 to 4

Binder | pKd
NASRTRITFV [MCM7, P33993] | below the threshold
QSPPNIYYKV [EFNB3, Q15768] | below the threshold

The binders below were run against Inadl_6, Q8NI35 (assay: holdup assay). Conditions: plain residues with an end cap or a label only (N-terminal biotin on a linker: ado-ado).
Chain of Inadl_6, Q8NI35 (Q8NI35 1058-1167): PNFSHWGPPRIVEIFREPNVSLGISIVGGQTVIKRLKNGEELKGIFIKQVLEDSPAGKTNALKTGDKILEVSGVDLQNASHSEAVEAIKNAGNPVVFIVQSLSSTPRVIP
Set-up: key: below the threshold = too weak to quantify, mostly under pKd 3.1 to 4

Binder | pKd
NASRTRITFV [MCM7, P33993] | 4.46
QSPPNIYYKV [EFNB3, Q15768] | below the threshold

Each binder was assayed against MAGI2_6, Q86UL8 (assay: holdup assay). Conditions: plain residues with an end cap or a label only (N-terminal biotin on a linker: ado-ado).
Chain of MAGI2_6, Q86UL8 (Q86UL8 1141-1229): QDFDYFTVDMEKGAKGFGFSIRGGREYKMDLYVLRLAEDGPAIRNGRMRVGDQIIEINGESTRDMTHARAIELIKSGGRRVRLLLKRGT
Set-up: key: below the threshold = too weak to quantify, mostly under pKd 3.1 to 4

Binder | pKd
NASRTRITFV [MCM7, P33993] | 4.16
QSPPNIYYKV [EFNB3, Q15768] | below the threshold

These binders were tested against T8, MPP6, Q9NZW5 (assay: holdup assay). Conditions: plain residues with an end cap or a label only (N-terminal biotin on a linker: ado-ado).
Set-up: key: below the threshold = too weak to quantify, mostly under pKd 3.1 to 4

Binder | pKd
NASRTRITFV [MCM7, P33993] | below the threshold
QSPPNIYYKV [EFNB3, Q15768] | below the threshold

Each binder was assayed against T9, NHERF3_1, Q5T2W1 (assay: holdup assay). Conditions: plain residues with an end cap or a label only (N-terminal biotin on a linker: ado-ado).
Set-up: key: below the threshold = too weak to quantify, mostly under pKd 3.1 to 4

Binder | pKd
NASRTRITFV [MCM7, P33993] | 4.28
QSPPNIYYKV [EFNB3, Q15768] | 3.61

These binders were tested against NHERF4_2, Q86UT5 (assay: holdup assay). Conditions: plain residues with an end cap or a label only (N-terminal biotin on a linker: ado-ado).
Chain of NHERF4_2, Q86UT5 (Q86UT5 220-308): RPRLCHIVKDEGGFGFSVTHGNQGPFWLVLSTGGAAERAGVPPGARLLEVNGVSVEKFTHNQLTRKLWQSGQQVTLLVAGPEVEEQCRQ
Set-up: key: below the threshold = too weak to quantify, mostly under pKd 3.1 to 4

Binder | pKd
NASRTRITFV [MCM7, P33993] | below the threshold
QSPPNIYYKV [EFNB3, Q15768] | below the threshold

The binders below were run against NOS1, P29475 (assay: holdup assay). Conditions: plain residues with an end cap or a label only (N-terminal biotin on a linker: ado-ado).
Chain of NOS1, P29475 (P29475 9-101): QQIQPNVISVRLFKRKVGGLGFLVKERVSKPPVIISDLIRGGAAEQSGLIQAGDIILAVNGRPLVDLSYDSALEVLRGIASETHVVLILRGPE
Set-up: key: below the threshold = too weak to quantify, mostly under pKd 3.1 to 4

Binder | pKd
NASRTRITFV [MCM7, P33993] | 3.84
QSPPNIYYKV [EFNB3, Q15768] | 3.53

What follows are binders tested against T10, PCLO, Q9Y6V0 (assay: holdup assay). Conditions: plain residues with an end cap or a label only (N-terminal biotin on a linker: ado-ado).
Set-up: key: below the threshold = too weak to quantify, mostly under pKd 3.1 to 4

Binder | pKd
NASRTRITFV [MCM7, P33993] | below the threshold
QSPPNIYYKV [EFNB3, Q15768] | below the threshold

What follows are binders tested against PICK1, Q9NRD5 (assay: holdup assay). Conditions: plain residues with an end cap or a label only (N-terminal biotin on a linker: ado-ado).
Chain of PICK1, Q9NRD5 (Q9NRD5 17-115): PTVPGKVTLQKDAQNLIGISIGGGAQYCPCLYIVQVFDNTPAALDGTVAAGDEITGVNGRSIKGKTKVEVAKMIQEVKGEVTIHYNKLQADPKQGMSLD
Set-up: key: below the threshold = too weak to quantify, mostly under pKd 3.1 to 4

Binder | pKd
NASRTRITFV [MCM7, P33993] | 4.17
QSPPNIYYKV [EFNB3, Q15768] | below the threshold

These binders were tested against T11, SNTA1, Q13424 (assay: holdup assay). Conditions: plain residues with an end cap or a label only (N-terminal biotin on a linker: ado-ado).
Set-up: key: below the threshold = too weak to quantify, mostly under pKd 3.1 to 4

Binder | pKd
NASRTRITFV [MCM7, P33993] | 4.97
QSPPNIYYKV [EFNB3, Q15768] | below the threshold

What follows are binders tested against T12, TIAM2, Q8IVF5 (assay: holdup assay). Conditions: plain residues with an end cap or a label only (N-terminal biotin on a linker: ado-ado).
Set-up: key: below the threshold = too weak to quantify, mostly under pKd 3.1 to 4

Binder | pKd
NASRTRITFV [MCM7, P33993] | 4.06
QSPPNIYYKV [EFNB3, Q15768] | 4.01

The binders below were run against T13, TJP3_3, O95049 (assay: holdup assay). Conditions: plain residues with an end cap or a label only (N-terminal biotin on a linker: ado-ado).
Set-up: key: below the threshold = too weak to quantify, mostly under pKd 3.1 to 4

Binder | pKd
NASRTRITFV [MCM7, P33993] | 3.53
QSPPNIYYKV [EFNB3, Q15768] | below the threshold
